What follows are sequences tested on Escherichia coli TOP10 (assay: shrunken log2 fold change of peptide-encoding DNA abundance (4.5 h post-induction vs induction); higher = less antimicrobial activity (less host growth inhibition)). Conditions: time post-induction: 4.5 h; library: site-saturation at positions 5, 18, 19, 20.
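Note: peptides expressed intracellularly from a pBAD plasmid library in pooled LB shake-flask culture, induced with 0.3% L-arabinose, DNA abundance read by NGS, three biological replicates, DESeq2 with apeglm shrinkage.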

Sequence	shrunken log2 fold change
RRIRWRPPRLPRPRPRPDPNPRP	0.196
RRIRERPPRLPRPRPRPHIGPRP	0.00581
RRIRERPPRLPRPRPRPTEQPRP	-0.00926
RRIRFRPPRLPRPRPRPRSMPRP	-0.408
RRIRPRPPRLPRPRPRPVECPRP	0.00863
RRIRNRPPRLPRPRPRPMPRPRP	0.11
RRIRPRPPRLPRPRPRPYRNPRP	-0.558
RRIRTRPPRLPRPRPRPHGMPRP	-0.157
RRIRTRPPRLPRPRPRPPCSPRP	-0.00786
RRIRWRPPRLPRPRPRPRINPRP	0.0839
RRIRPRPPRLPRPRPRPWTRPRP	0.0201
RRIRKRPPRLPRPRPRPVHKPRP	0.288
RRIRRRPPRLPRPRPRPATEPRP	0.421
RRIRCRPPRLPRPRPRPCMHPRP	-0.0569
RRIRLRPPRLPRPRPRPEPTPRP	-0.00556
RRIRSRPPRLPRPRPRPQSDPRP	-0.0499
RRIRGRPPRLPRPRPRPMYWPRP	-0.0689
RRIRDRPPRLPRPRPRPQGDPRP	0.0878
RRIRQRPPRLPRPRPRPNQKPRP	-0.0966
RRIRDRPPRLPRPRPRPNSNPRP	-0.573
RRIRPRPPRLPRPRPRPWGRPRP	0.122
RRIRCRPPRLPRPRPRPYTKPRP	-0.321
RRIRQRPPRLPRPRPRPCGDPRP	-0.0871
RRIRYRPPRLPRPRPRPQEHPRP	-0.65
RRIRHRPPRLPRPRPRPQQDPRP	-0.147

Sequence	shrunken log2 fold change
RRIRCRPPRLPRPRPRPSHDPRP	-0.235
RRIRARPPRLPRPRPRPWMTPRP	-0.141
RRIRDRPPRLPRPRPRPSPHPRP	-0.0473
RRIRIRPPRLPRPRPRPSNLPRP	-0.931
RRIRLRPPRLPRPRPRPAGAPRP	0.632
RRIRFRPPRLPRPRPRPMGTPRP	-0.0834
RRIRDRPPRLPRPRPRPMRTPRP	0.519
RRIRERPPRLPRPRPRPDHWPRP	0.0945
RRIRGRPPRLPRPRPRPEPSPRP	1.47
RRIRWRPPRLPRPRPRPCGGPRP	0.123
RRIRQRPPRLPRPRPRPNWGPRP	0.105
RRIRDRPPRLPRPRPRPCCSPRP	0.166
RRIRMRPPRLPRPRPRPIKFPRP	-0.5
RRIRNRPPRLPRPRPRPCIEPRP	-0.117
RRIRFRPPRLPRPRPRPQTCPRP	-0.31
RRIRRRPPRLPRPRPRPFMTPRP	0.0665
RRIRERPPRLPRPRPRPWMCPRP	-0.11
RRIRDRPPRLPRPRPRPAKTPRP	0.152
RRIRYRPPRLPRPRPRPIPEPRP	0.0704
RRIRGRPPRLPRPRPRPFHCPRP	-0.36
RRIRVRPPRLPRPRPRPDSQPRP	-0.116
RRIRCRPPRLPRPRPRPQATPRP	0.122
RRIRERPPRLPRPRPRPAMQPRP	0.0339
RRIRVRPPRLPRPRPRPIANPRP	0.0572
RRIRSRPPRLPRPRPRPAYGPRP	-0.122

Reference: the supplement of paper PMC9112550, “Optimization of the antimicrobial peptide Bac7 by deep mutational scanning” (BMC Biology, 2022)
